Test results: the supplement of paper PMC7877785
± gives the uncertainty stated by the source.

Assay: self-splicing fitness, log relative to wild type (ln ratio); higher = more splicing; Tetrahymena group I intron in knt gene, E. coli kanamycin selection, DiMSum; sequences stand for … in CUCUCU…GGAGGGAAAAGUUAUCAGGCAUGCACCUGGUAGCUAGUCUUUAAACCAAUAGAUUGCAUCGGUUUAAAAGGCAAGACCGUCAAAUUGCGGGAAAGGGGUCAACAGCCGUUCAGUACCAAGUCUCAGGGGAAACUUUGAGAUGGCCUUGCAAAGGGUAUGGUAAUAAGCUGACGGACAUGGUCCUAACCACGCAGCCAAGUCCUAAGUCAACAGAUCUUCUGUUGAUAUGGAUGCAGUUCACAGACUAAAUGUCGGUCGGGGAAGAUGUAUUCUUCUCAUAAGAUAUAGUCGGACCUCUCCUUAAUGGGAGCUAGCGGAUGAAGUGAUGCAACACUGGAGCCGCUGGGAACUAAUUUGUAUGCGAAAGUAUAUUGAUUAGUUUUGGAGUACUCGUGGUCG
How it was run: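 Pooled colonies went to amplicon sequencing on an Illumina HiSeq 2500 after six replicate transformations. The plates were LB agar with 100 μg/mL carbenicillin, 50 μM IPTG and 0.2% rhamnose, with or without 25 μg/mL kanamycin, incubated overnight at 37°C or 30°C. The E. coli BL21(DE3) library had all eight P1ex-region intron nucleotides randomised, the intron placed in the knt kanamycin-resistance gene on pET-22b(+). DiMSum fitness is the error-weighted combination of replicate fold changes, kanamycin against none, normalised to wild type.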

Sequence | self-splicing fitness (ln) (30 °C) | self-splicing fitness (ln) (37 °C)
CGAAAGCAAUAUUACGCAUU | -4.46 ± 0.42 | -2.94 ± 0.37
CGAAAGCAAUAUUACGCCGU | -2.98 ± 0.16 | -0.862 ± 0.12
CGAAAGCAAUAUUACGCGAA | -1.82 ± 0.24 | -2.02 ± 0.3
CGAAAGCAAUAUUACGCUAA | -3.88 ± 0.4 | -1.53 ± 0.21
CGAAAGCAAUAUUACGCUAC | -2.53 ± 0.3 | –
CGAAAGCAAUAUUACGGAGC | -4.16 ± 0.25 | -2.22 ± 0.16
CGAAAGCAAUAUUACGGCUG | 0.127 ± 0.11 | 0.181 ± 0.13
CGAAAGCAAUAUUACGGUAU | -3.81 ± 0.29 | -1.2 ± 0.19
CGAAAGCAAUAUUACGGUUA | -1.85 ± 0.12 | -2.11 ± 0.1
CGAAAGCAAUAUUACGUCCC | -0.693 ± 0.14 | -0.0504 ± 0.23
CGAAAGCAAUAUUACGUGGU | -3.92 ± 0.14 | -2.11 ± 0.13
CGAAAGCAAUAUUACGUUUC | -3.81 ± 0.2 | -2.15 ± 0.16
CGACAGCAAUAUUACGAAAC | -3.49 ± 0.27 | -2.39 ± 0.25
CGACAGCAAUAUUACGACCA | -0.898 ± 0.1 | -0.397 ± 0.12
CGACAGCAAUAUUACGACUG | -1.32 ± 0.089 | -0.0407 ± 0.14
CGACAGCAAUAUUACGAGCC | -3.59 ± 0.22 | -1.68 ± 0.26
CGACAGCAAUAUUACGAGGC | -1.34 ± 0.13 | -2.49 ± 0.31
CGACAGCAAUAUUACGAUUA | -1.99 ± 0.12 | -0.873 ± 0.1
CGACAGCAAUAUUACGCAUC | -3.1 ± 0.14 | -2.75 ± 0.25
CGACAGCAAUAUUACGCCAU | -3.77 ± 0.3 | -1.51 ± 0.32
CGACAGCAAUAUUACGCGUA | -1.75 ± 0.28 | -1.58 ± 0.15
CGACAGCAAUAUUACGGCUU | -3.12 ± 0.16 | -1.6 ± 0.14
CGACAGCAAUAUUACGGGUU | -3.47 ± 0.12 | -2.01 ± 0.12
CGACAGCAAUAUUACGGUCC | -1.13 ± 0.11 | -0.69 ± 0.14

Sequence | self-splicing fitness (ln) (30 °C) | self-splicing fitness (ln) (37 °C)
CGACAGCAAUAUUACGGUUA | -0.601 ± 0.062 | 0.0311 ± 0.067
CGACAGCAAUAUUACGUAAA | -3.02 ± 0.15 | -2.28 ± 0.21
CGACAGCAAUAUUACGUACA | -0.66 ± 0.078 | -0.392 ± 0.099
CGACAGCAAUAUUACGUAGA | -3.57 ± 0.13 | -2.12 ± 0.15
CGACAGCAAUAUUACGUAGC | -3.61 ± 0.18 | -2.21 ± 0.16
CGACAGCAAUAUUACGUAUU | -3.09 ± 0.14 | -2.53 ± 0.16
CGACAGCAAUAUUACGUCAA | -1.99 ± 0.14 | -1.21 ± 0.12
CGACAGCAAUAUUACGUCCC | -0.895 ± 0.47 | –
CGACAGCAAUAUUACGUCUC | -1.98 ± 0.13 | -2.13 ± 0.2
CGACAGCAAUAUUACGUGAC | -3.67 ± 0.24 | -2.61 ± 0.31
CGACAGCAAUAUUACGUGGG | -3.19 ± 0.14 | -1.54 ± 0.1
CGACAGCAAUAUUACGUUCC | -1.82 ± 0.11 | -0.935 ± 0.14
CGACAGCAAUAUUACGUUCG | -2.52 ± 0.15 | -2.18 ± 0.22
CGACAGCAAUAUUACGUUUA | -1.81 ± 0.11 | -0.394 ± 0.087
CGAGAGCAAUAUUACGAACA | -2.54 ± 0.3 | -2.84 ± 0.41
CGAGAGCAAUAUUACGAAGC | -3.7 ± 0.28 | -2.02 ± 0.27
CGAGAGCAAUAUUACGACCG | -3.71 ± 0.43 | -1.84 ± 0.33
CGAGAGCAAUAUUACGAGCU | -4.6 ± 0.42 | -3.02 ± 0.47
CGAGAGCAAUAUUACGAGUG | -3.53 ± 0.26 | -0.803 ± 0.14
CGAGAGCAAUAUUACGAUAG | -2.68 ± 0.18 | -2.11 ± 0.18
CGAGAGCAAUAUUACGCCGU | -2.28 ± 0.49 | –
CGAGAGCAAUAUUACGCCUG | -3.12 ± 0.25 | -1.73 ± 0.28
CGAGAGCAAUAUUACGCGUC | -3.01 ± 0.36 | -2.64 ± 0.42
CGAGAGCAAUAUUACGCGUU | -2.8 ± 0.36 | -2.46 ± 0.49
